From US20240076348A1 come the findings set out here.

This assay deals with Colony-stimulating factor-1 receptor (CSF-1R), encoded by c-fms (UniProt P07333). As to the kind of experiment: cell-based or functional assay.

As to “C34B pCAR (CSF1-28z plus IL34-41BB), expressed on human T-cells (from UniProt P09603 33-190; Q6ZMJ4 21-242)”, the tumour cell killing on repeated re-stimulation, MTT assay on T47D FMS and T47D monolayers (iterative cycles of re-stimulation) is less than 13.
